Where “and” joins values, the source holds several entries; their conditions need not be identical. Equal entries are not always repeated. Starred links: 1 amine or outer side, 2 acyl side, 3 side chain; linkers in the order of their positions; H or OH if unused. Non-standard residues stand in square brackets, D forms with d. Groups on a side chain read outwards from the residue. No end group written: not given here. *: point of attachment. C20 diacid = O=C(O)CCCCCCCCCCCCCCCCCCC(=O)*; γGlu = O=C(O)[C@H](CCC(=O)[*:2])N[*:1]; AEEA = NCCOCCOCC(=O)O; Aib = CC(C)(N)C(=O)O
Columns and labels:
pancreatic islets = test: Pancreatic islet perifusion, insulin secretion; settings: ex vivo perifusion, male mice, iAUC; GLP-1 300 pM, GIP 3 nM (after 1 μM Ex9), tirzepatide 1 nM
[1] = native ligand, during meal induced incretin secretion; cited from earlier work
[2] = target: mouse GLP-1R–LgBiT (mouse) (UniProt O35659)
mouse GLP-1R–LgBiT (mouse), sequence (O35659 22-463): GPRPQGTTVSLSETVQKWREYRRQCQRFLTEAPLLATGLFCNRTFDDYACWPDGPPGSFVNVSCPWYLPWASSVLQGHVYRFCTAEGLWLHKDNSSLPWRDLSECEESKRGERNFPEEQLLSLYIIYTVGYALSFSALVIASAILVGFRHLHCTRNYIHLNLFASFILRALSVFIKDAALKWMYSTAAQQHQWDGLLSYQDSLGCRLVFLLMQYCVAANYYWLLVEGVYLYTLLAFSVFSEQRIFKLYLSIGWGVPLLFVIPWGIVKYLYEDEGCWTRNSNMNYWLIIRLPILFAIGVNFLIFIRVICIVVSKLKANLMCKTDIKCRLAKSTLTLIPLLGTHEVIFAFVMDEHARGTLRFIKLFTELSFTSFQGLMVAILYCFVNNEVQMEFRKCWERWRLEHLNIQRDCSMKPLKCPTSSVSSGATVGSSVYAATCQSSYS

[3] = target: T1, human GIP receptor (GIPR) (human, UniProt P48546-1 22-466); test: radioligand binding; settings: one partner purified
T1 construct: human GIPR (NP_000155), untagged, expressed in HEK293 cells at low, medium or high density; also called glucose-dependent insulinotropic polypeptide receptor; source: HEK293 clonal cell lines, stably transfected (pcDNA3.1)
T1 sequence (looked up): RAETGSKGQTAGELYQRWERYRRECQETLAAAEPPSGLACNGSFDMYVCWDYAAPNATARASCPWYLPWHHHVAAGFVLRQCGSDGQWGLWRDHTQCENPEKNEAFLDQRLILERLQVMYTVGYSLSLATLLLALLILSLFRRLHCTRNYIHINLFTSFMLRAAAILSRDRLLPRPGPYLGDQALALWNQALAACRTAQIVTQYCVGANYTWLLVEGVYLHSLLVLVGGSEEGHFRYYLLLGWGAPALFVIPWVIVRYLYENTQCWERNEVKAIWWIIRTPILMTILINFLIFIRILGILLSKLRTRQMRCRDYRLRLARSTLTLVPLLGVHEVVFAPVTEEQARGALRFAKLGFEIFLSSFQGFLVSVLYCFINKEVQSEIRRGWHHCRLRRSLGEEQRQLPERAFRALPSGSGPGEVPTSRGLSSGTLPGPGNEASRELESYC

[4] = target: T1, human GIP receptor (GIPR); test: cell-based or functional assay
[5] = target: T1, human GIP receptor (GIPR); test: radioligand binding; competition with [125I]GIP(1-42)OH (GIPR) or [125I]GLP-1(7-36)NH2 (GLP-1R), ~0.12–0.20 nM, on membranes of HEK293 cells expressing the human receptor held on WGA-PVT SPA beads; 1.0 mM MgCl2, 2.5 mM CaCl2, 0.003% w/v Tween-20, 0.1% w/v bacitracin, 25 mM HEPES pH 7.4; 18 hours at room temperature; Ki by the Cheng-Prussoff correction; settings: one partner purified

Q: Which “insulin secretion of Arrb1βcell–/– islets compared with control islets” value (pancreatic islets) does the source give for `CC[C@H](C)[C@H](NC(=O)[C@H](CO)NC(=O)[C@H](Cc1ccc(O)cc1)NC(=O)[C@H](CC(=O)O)NC(=O)[C@H](CO)NC(=O)[C@@H](NC(=O)[C@H](Cc1ccccc1)NC(=O)[C@@H](NC(=O)CNC(=O)[C@H](CCC(=O)O)NC(=O)[C@H](C)NC(=O)[C@@H](N)Cc1ccc(O)cc1)[C@@H](C)O)[C@@H](C)CC)C(=O)N[C@@H](C)C(=O)N[C@@H](CCSC)C(=O)N[C@@H](CC(=O)O)C(=O)N[C@@H](CCCCN)C(=O)N[C@H](C(=O)N[C@@H](Cc1c[nH]cn1)C(=O)N[C@@H](CCC(N)=O)C(=O)N[C@@H](CCC(N)=O)C(=O)N[C@@H](CC(=O)O)C(=O)N[C@@H](Cc1ccccc1)C(=O)N[C@H](C(=O)N[C@@H](CC(N)=O)C(=O)N[C@@H](Cc1c[nH]c2ccccc12)C(=O)N[C@@H](CC(C)C)C(=O)N[C@@H](CC(C)C)C(=O)N[C@@H](C)C(=O)N[C@@H](CCC(N)=O)C(=O)N[C@@H](CCCCN)C(=O)NCC(=O)N[C@@H](CCCCN)C(=O)N[C@@H](CCCCN)C(=O)N[C@@H](CC(N)=O)C(=O)N[C@@H](CC(=O)O)C(=O)N[C@@H](Cc1c[nH]c2ccccc12)C(=O)N[C@@H](CCCCN)C(=O)N[C@@H](Cc1c[nH]cn1)C(=O)N[C@@H](CC(N)=O)C(=O)N[C@H](C(=O)N[C@H](C(=O)N[C@@H](CCC(N)=O)C(N)=O)[C@@H](C)O)[C@@H](C)CC)C(C)C)[C@@H](C)CC` [GIP(1-42), GIP(1-42)NH2] here?
A: not different

Q: Which “Css (free): range of Cmax values” [1] does the source give for `CC[C@H](C)[C@H](NC(=O)[C@H](Cc1ccccc1)NC(=O)[C@H](CCC(=O)O)NC(=O)[C@H](CCCCN)NC(=O)[C@H](C)NC(=O)[C@H](C)NC(=O)[C@H](CCC(N)=O)NC(=O)CNC(=O)[C@H](CCC(=O)O)NC(=O)[C@H](CC(C)C)NC(=O)[C@H](Cc1ccc(O)cc1)NC(=O)[C@H](CO)NC(=O)[C@H](CO)NC(=O)[C@@H](NC(=O)[C@H](CC(=O)O)NC(=O)[C@H](CO)NC(=O)[C@@H](NC(=O)[C@H](Cc1ccccc1)NC(=O)[C@@H](NC(=O)CNC(=O)[C@H](CCC(=O)O)NC(=O)[C@H](C)NC(=O)[C@@H](N)Cc1c[nH]cn1)[C@@H](C)O)[C@@H](C)O)C(C)C)C(=O)N[C@@H](C)C(=O)N[C@@H](Cc1c[nH]c2ccccc12)C(=O)N[C@@H](CC(C)C)C(=O)N[C@H](C(=O)N[C@@H](CCCCN)C(=O)NCC(=O)N[C@@H](CCCNC(=N)N)C(N)=O)C(C)C` [GLP-1(7-36), GLP-1(7-36)NH2] here?
A: 5-15^E pM

Q: What about the “insulin secretion of Arrb1βcell–/– islets compared with control islets” value (pancreatic islets) of the same molecule?
A: secreted more insulin

Q: With Tirzepatide (LY3298176) (peptide) as the molecule, how does the other [2] read?
A: 6.6 nM and 2.4 nM

B1: Tirzepatide (LY3298176) (peptide)
chain: Y[Aib]EGTFTSDYSI[Aib]LDKIAQK([AEEA-AEEA-γGlu-C20 diacid])AFVQWLIAGGPSSGAPPPS-NH2
Q: Which Ki [3] does the source give for B1 here?
A: 0.163 nM

B2: Semaglutide (peptide)
chain: HAEGTFTSDVSSYLEGQAAKEFIAWLVRGRG
modifications: Aib at the 2nd residue (written X in the letters); C18 diacid-γGlu-(AEEA)2 on the lysine at the 20th residue
Q: For B2, which “EC50 of cAMP accumulation, HEK293 cells with low density of human GIPR (1,700 receptors/cell)” value [4] is on record?
A: > 850 nM

Q: What about the “EC50 of cAMP accumulation, HEK293 cells with medium density of human GIPR (6,400 receptors/cell)” value [4] of the same molecule?
A: > 100 nM

Q: And the Ki [5]?
A: > 500 nM

Source: article PMC7526454 (JCI Insight, 2020)
